From patent US20230056252A1 (Gilead, published 2023) come the findings set out here.

Positions count from the first letter of the chain named.

The chains are these.
B1: huSP34.5.6 Fab-HF (Fab, V domains shown)
VH: EVQLVESGGGLVQPGGSLRLSCAASGFTFSTYAMNWVRQAPGKGLEWVGRIRSKYNNYATYYADSVKGRFTISRDNSKNTLYLQMNSLRAEDTAVYYCVRHGNFGHSYVSWFAVWGQGTLVTVSS
VL: QAVVTQPPSLTVSPGGTVTLTCGSSTGAVTTGHYANWVQQKPGQAPRGLIGGTSNRAPGVPARFSGSLSGGKAALTISGAQPEDEAEYYCALWYSARWVFGGGTKLTVL
notes: also called HC5+LC6
B2: huSP34.9.6 Fab-HF (Fab, V domains shown)
VH: B1 VH with T31D, I51T, N57S, D64A, N76D, T80S, R89K, A90T, H106N
VL: B1 VL
notes: also called HC9+LC6
B3: huSP34.7.6 Fab-HF (Fab, V domains shown)
VH: B1 VH with T31D, I51T, D64A, N76D, T80S, R89K, A90T, H106N
VL: B1 VL
notes: also called HC7+LC6
B4: huSP34.6.6 Fab-HF (Fab, V domains shown)
VH: B1 VH with V95M, H106N
VL: B1 VL
notes: also called HC6+LC6
B5: huSP34.10.6 Fab-HF (Fab, V domains shown)
VH: B1 VH with T31D, I51T, N57S, D64A, N76D, T80S, R89K, A90T
VL: B1 VL
notes: also called HC10+LC6
B6: huSP34.10.1 Fab-HF (Fab, V domains shown)
VH: B1 VH with T31D, I51T, N57S, D64A, N76D, T80S, R89K, A90T
VL: QAVVTQEPSLTVSPGGTVTLTCRSSTGAVTTSNYANWVQQKPGQAPRGLIGGTNKRAPWTPARFSGSLIGDKAALTLSGAQPEDEAEYYCALWYSNLWVFGGGTKLTVL
notes: also called HC10+LC1
B7: huSP34.8.6 Fab-HF (Fab, V domains shown)
VH: B1 VH with T31D, I51T, D64A, N76D, T80S, R89K, A90T
VL: B1 VL
notes: also called HC8+LC6
B8: huSP34.9.4 Fab-HF (Fab, V domains shown)
VH: B1 VH with T31D, I51T, N57S, D64A, N76D, T80S, R89K, A90T, H106N
VL: B6 VL with R23G, N33H, N54S, I69L, D71G, N96A
notes: also called HC9+LC4
B9: huSP34.9.5 Fab-HF (Fab, V domains shown)
VH: B1 VH with T31D, I51T, N57S, D64A, N76D, T80S, R89K, A90T, H106N
VL: B1 VL with P7E, G59W, V60T, S69L, I77L
notes: also called HC9+LC5
B10: huSP34.8.5 Fab-HF (Fab, V domains shown)
VH: B1 VH with T31D, I51T, D64A, N76D, T80S, R89K, A90T
VL: B1 VL with P7E, G59W, V60T, S69L, I77L
notes: also called HC8+LC5
B11: huSP34.10.5 Fab-HF (Fab, V domains shown)
VH: B1 VH with T31D, I51T, N57S, D64A, N76D, T80S, R89K, A90T
VL: B1 VL with P7E, G59W, V60T, S69L, I77L
notes: also called HC10+LC5
B12: huSP34.9.2 Fab-HF (Fab, V domains shown)
VH: B1 VH with T31D, I51T, N57S, D64A, N76D, T80S, R89K, A90T, H106N
VL: B6 VL with R23G, N54S, K55N, I69L, D71G
notes: also called HC9+LC2
B13: huSP34.10.2 Fab-HF (Fab, V domains shown)
VH: B1 VH with T31D, I51T, N57S, D64A, N76D, T80S, R89K, A90T
VL: B6 VL with R23G, N54S, K55N, I69L, D71G
notes: also called HC10+LC2
B14: huSP34.10.4 Fab-HF (Fab, V domains shown)
VH: B1 VH with T31D, I51T, N57S, D64A, N76D, T80S, R89K, A90T
VL: B6 VL with R23G, N33H, N54S, I69L, D71G, N96A
notes: also called HC10+LC4
B15: huSP34.9.1 Fab-HF (Fab, V domains shown)
VH: B1 VH with T31D, I51T, N57S, D64A, N76D, T80S, R89K, A90T, H106N
VL: B6 VL
notes: also called HC9+LC1
B16: huSP34.3.13 Fab-HF (Fab, V domains shown)
VH: B1 VH with S30N, N76D, T80S, A90T, V114Y
VL: B1 VL with P7E, S69L, A96N
notes: also called HC3+LC13
B17: huSP34.35.15 Fab-HF (Fab, V domains shown)
VH: B1 VH with S30N, T31D, I51T, D64A, N76D, T80S, R89K, A90T, V95M, V114Y
VL: B1 VL with S54N, N55K
notes: also called HC35+LC15
B18: huSP34.35.6 Fab-HF (Fab, V domains shown)
VH: B1 VH with S30N, T31D, I51T, D64A, N76D, T80S, R89K, A90T, V95M, V114Y
VL: B1 VL
notes: also called HC35+LC6
B19: huSP34.34.6 Fab-HF (Fab, V domains shown)
VH: B1 VH with S30N, D64A, N76D, T80S, R89K, A90T, V95M, V114Y
VL: B1 VL
notes: also called HC34+LC6
B20: huSP34.34.17 Fab-HF (Fab, V domains shown)
VH: B1 VH with S30N, D64A, N76D, T80S, R89K, A90T, V95M, V114Y
VL: B1 VL with S54N, N55K, G59W, V60T
notes: also called HC34+LC17
B21: huSP34.34.11 Fab-HF (Fab, V domains shown)
VH: B1 VH with S30N, D64A, N76D, T80S, R89K, A90T, V95M, V114Y
VL: B6 VL with R23G, S32G, N33H, W59G, T60V, I69L, D71G
notes: also called HC34+LC11
B22: huSP34.34.15 Fab-HF (Fab, V domains shown)
VH: B1 VH with S30N, D64A, N76D, T80S, R89K, A90T, V95M, V114Y
VL: B1 VL with S54N, N55K
notes: also called HC34+LC15
B23: huSP34.35.12 Fab-H (Fab, V domains shown)
VH: B1 VH with S30N, T31D, I51T, D64A, N76D, T80S, R89K, A90T, V95M, V114Y
VL: B1 VL with S54N, N55K, G59W, V60T, A96N
notes: also called HC35+LC12
B24: huSP34.36.10 Fab-HF (Fab, V domains shown)
VH: B1 VH with S30N, T31D, D64A, N76D, T80S, R89K, A90T, V95M, V114Y
VL: B1 VL with S54N, N55K, A96N
notes: also called HC36+LC10
B25: huSP34.35.10 Fab-HF (Fab, V domains shown)
VH: B1 VH with S30N, T31D, I51T, D64A, N76D, T80S, R89K, A90T, V95M, V114Y
VL: B1 VL with S54N, N55K, A96N
notes: also called HC35+LC10
B26: huSP34.37.10 Fab-HF (Fab, V domains shown)
VH: B1 VH with S30N, I51T, D64A, N76D, T80S, R89K, A90T, V95M, V114Y
VL: B1 VL with S54N, N55K, A96N
notes: also called HC37+LC10
B27: huSP34.34.14 Fab-HF (Fab, V domains shown)
VH: B1 VH with S30N, D64A, N76D, T80S, R89K, A90T, V95M, V114Y
VL: B1 VL with A96N
notes: also called HC34+LC14
B28: huSP34.34.18 Fab-H (Fab, V domains shown)
VH: B1 VH with S30N, D64A, N76D, T80S, R89K, A90T, V95M, V114Y
VL: B1 VL with G59W, V60T
notes: also called HC34+LC18
B29: huSP34.34.12 Fab-HF (Fab, V domains shown)
VH: B1 VH with S30N, D64A, N76D, T80S, R89K, A90T, V95M, V114Y
VL: B1 VL with S54N, N55K, G59W, V60T, A96N
notes: also called HC34+LC12
B30: huSP34.3.19 Fab-HF (Fab, V domains shown)
VH: B1 VH with S30N, N76D, T80S, A90T, V114Y
VL: B1 VL with P7E, S54N, N55K, S69L
notes: also called HC3+LC19
B31: huSP34.34.16 Fab-HF (Fab, V domains shown)
VH: B1 VH with S30N, D64A, N76D, T80S, R89K, A90T, V95M, V114Y
VL: B1 VL with G59W, V60T, A96N
notes: also called HC34+LC16
B32: huSP34.34.10 Fab-HF (Fab, V domains shown)
VH: B1 VH with S30N, D64A, N76D, T80S, R89K, A90T, V95M, V114Y
VL: B1 VL with S54N, N55K, A96N
notes: also called HC34+LC10
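For result in this document: biolayer interferometry with biotinylated CD3 epsilon:delta captured on streptavidin sensors, Fab analyte at several concentrations up to 300 nM, 100 s association then 300 s dissociation.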

The target in the first test is T1, biotinylated CD3 epsilon:delta heterodimer protein (Amsbio AMS.CDD-H52WO) (Homo sapiens (Human), UniProt P07766 23-126; P04234 22-105).
T1 construct: also called CD3 heterodimer
Kind of test: BLI (Octet), CD3 on SA sensor, Fab analyte.
Procedure: (§1) The CD3 binding kinetics of the purified huSP34 Fabs were determined using OctetRed384 (Pall ForteBio, CA) biolayer interferometry (BLI). […] Streptavidin (SA) coated biosensors tips (Pall ForteBio, CA) were used to capture biotinylated CD3 epsilon: delta heterodimer and typical immobilization levels captured on the SA sensors were 1 nm which approximately translates to 300 ng/ml of captured protein. For kinetic measurements biosensors were first pre-wetted with assay buffer for 10 minutes to remove protective sucrose coating followed by the recommended regeneration conditions for standardization of the biosensor surface for the experiment. In order to load the biosensors with antigen, 300 ng/ml of biotinylated CD3 epsilon: delta heterodimer protein (Amsbio AMS.CDD-H52WO) was immobilized on the SA sensor for 900 seconds. The CD3 loaded biosensors were then blocked with 20 ug/ml biocytin (sigma) for 200 seconds and then dipped into assay buffer containing wells for 200 seconds to remove any non-specific protein or unbound CD3 heterodimer.
(§2) CD3 loaded and biocytin blocked biosensors were then transferred into fresh assay buffer for 200 seconds to collect a baseline read. Kinetic measurements for anti-CD3 Fab and bispecific antibody binding were performed by dipping the CD3-coated biosensors into wells containing multiple concentrations of Fab or Ab (0-300 nM) for 100 seconds followed by a 300 second dissociation time by transferring the biosensors into assay buffer containing wells. The CD3 loaded sensors were then regenerated for the next kinetic measurement. Biosensors were generated by removing bound Fabs or Ab from immobilized CD3 on SA biosensors. Regeneration conditions used consisted of 3 cycles of 5 seconds of dipping the biosensors in Regeneration Buffer (10 mM Glycine HCl pH 1.5) followed by Assay Buffer (10 mM sodium phosphate pH 7.4, 140 mM Sodium Chloride, 0.005% Tween20 with 0.2% BSA).
B1 registered a dissociation constant (Kd) of 268 nM, a koff of 0.0746 s⁻¹ and a kon of 280000 M⁻¹ s⁻¹.
For B2, the Kd amounted to 289 nM, the koff turned out to be 0.169 s⁻¹ and the kon was 582000 M⁻¹ s⁻¹.
B3: the Kd turned out to be 425 nM, the koff amounted to 0.17 s⁻¹ and the kon was determined as 403000 M⁻¹ s⁻¹.
In the case of B4, the dissociation constant (Kd) worked out at 75 nM, the off-rate constant (koff) was determined as 0.0292 s⁻¹ and the kon amounted to 464000 M⁻¹ s⁻¹.
B5 came in with a Kd of 314 nM and a koff of 0.157 s⁻¹.
As for B6, the binding result is on record as “no binding (tested: 0-300 nM)”.
B7 showed a Kd of 375 nM, an off-rate (koff) of 0.138 s⁻¹ and an association rate constant (kon) of 367000 M⁻¹ s⁻¹.
On to B8, for which the affinity, expressed as Kd, was 6120 nM; the koff is 0.25 s⁻¹; the kon came to 40900 M⁻¹ s⁻¹.
B9: the binding result is reported as “no binding (tested: 0-300 nM)”.
The molecule B10 showed a Kd of 234 nM, a koff of 0.219 s⁻¹ and an on-rate constant (kon) of 958000 M⁻¹ s⁻¹.
In turn, B11 yielded a Kd of 222 nM and a koff of 0.0827 s⁻¹.
B12 returned a dissociation constant Kd of 761 nM, an off-rate constant (koff) of 0.145 s⁻¹ and an on-rate constant (kon) of 192000 M⁻¹ s⁻¹.
The molecule B13 returned a dissociation constant (Kd) of 307 nM, a koff of 0.0664 s⁻¹ and an association rate constant (kon) of 225000 M⁻¹ s⁻¹.
As to B14, the binding result is “no binding (tested: 0-300 nM)”.
B15: the equilibrium dissociation constant (Kd) worked out at 417 nM, the off-rate constant (koff) is 0.0779 s⁻¹ and the kon was found to be 187000 M⁻¹ s⁻¹.

Another test addresses T1, biotinylated CD3 epsilon:delta …. Kind of test: BLI (Octet), CD3 on SA sensor, Fab analyte. The source holds these as a separate data set.
Procedure: as §1, §2
On to B16, for which binding was characterised by a dissociation constant (Kd) of 6.2 nM, the koff was found to be 0.00129 s⁻¹ and the on-rate (kon) came out at 218000 M⁻¹ s⁻¹.
With B17, the dissociation constant (Kd) worked out at 303 nM, the off-rate constant (koff) turned out to be 0.17 s⁻¹ and the kon was determined as 560000 M⁻¹ s⁻¹.
In turn, B18 displayed a dissociation constant Kd of 178 nM, a koff of 0.187 s⁻¹ and a kon of 1.55e+06 M⁻¹ s⁻¹.
B19 had a dissociation constant (Kd) of 8 nM, a koff of 0.00357 s⁻¹ and a kon of 449000 M⁻¹ s⁻¹.
Turning to B20, the affinity, expressed as Kd, was 29.9 nM; the koff was 0.00816 s⁻¹; the kon worked out at 273000 M⁻¹ s⁻¹.
As to B21, binding was characterised by a dissociation constant (Kd) of 10.8 nM, the dissociation rate constant (koff) turned out to be 0.00118 s⁻¹ and the kon was 143000 M⁻¹ s⁻¹.
In the same order, the values of B22 are 14.7 nM, 0.0015 s⁻¹ and 109000 M⁻¹ s⁻¹.
Take B23: the Kd turned out to be 125 nM, the koff turned out to be 0.103 s⁻¹ and the kon is 2.08e+06 M⁻¹ s⁻¹.
B24 showed a Kd of 5.8 nM, an off-rate (koff) of 0.00929 s⁻¹ and a kon of 1.6e+06 M⁻¹ s⁻¹.
On to B25, for which the Kd turned out to be 224 nM, the off-rate (koff) amounted to 0.0759 s⁻¹ and the on-rate constant (kon) came out at 339000 M⁻¹ s⁻¹.
For the molecule B26, the affinity, expressed as Kd, was 16.1 nM; the koff amounted to 0.00267 s⁻¹; the association rate constant (kon) came out at 171000 M⁻¹ s⁻¹.
B27: binding was put at a Kd of 3.9 nM, the koff turned out to be 0.00126 s⁻¹ and the on-rate (kon) is 345000 M⁻¹ s⁻¹.
On the same counts, the results for B28 are 87.1 nM, 0.0224 s⁻¹ and 257000 M⁻¹ s⁻¹.
Turning to B29, binding was characterised by a dissociation constant (Kd) of 8.1 nM, the koff was determined as 0.0014 s⁻¹ and the kon amounted to 189000 M⁻¹ s⁻¹.
Consider B30, for which the affinity, expressed as Kd, was 9.9 nM; the off-rate constant (koff) was determined as 0.00164 s⁻¹; the kon was found to be 193000 M⁻¹ s⁻¹.
Regarding B31, the affinity, expressed as Kd, was 28.8 nM; the off-rate (koff) was 0.00599 s⁻¹; the on-rate (kon) came to 208000 M⁻¹ s⁻¹.
In the same order, the values of B32 are 4 nM, 0.000303 s⁻¹ and 155000 M⁻¹ s⁻¹.
